Test system: MS2 coat protein
Experiment: apparent KD of MS2 coat protein; designed switch direction (-1 OFF switch, 1 ON switch): 1; higher = weaker reporter binding
Outline: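 Designed RNA switches with common flanks were transcribed on Illumina chips by stalled E. coli RNA polymerase and titrated with SNAP-549-labelled MS2 coat protein, from 0.7 or 1.5 nM doubling to 3 µM, in Tris-HCl pH 7.5 buffer with KCl, MgCl2, BSA, DTT, tRNA and Tween-20. Steps lasted 0.8–1.5 h (lowest) to 10–20 min (highest). Titrations ran without input, with 200 uM small-molecule ligand, or with an oligonucleotide input. Normalised cluster fluorescence was curve-fitted, and apparent KD is the per-design median over clusters.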

[1] = input ligand: microRNA oligo, concentration not stated
[2] = Eterna round: R95, input ligand: FMN 200 uM
[3] = Eterna round: R95, input ligand: microRNA oligo, concentration not stated
[4] = Eterna round: R95, input ligand: none

Sequence	apparent KD of MS2 coat protein (input ligand: FMN 200 uM) [nM]	apparent KD of MS2 coat protein [1] [nM]	apparent KD of MS2 coat protein (input ligand: none) [nM]	apparent KD of MS2 coat protein [2] [nM]	apparent KD of MS2 coat protein [3] [nM]	apparent KD of MS2 coat protein [4] [nM]
GCUACGGACGUAGGAUAUGUAGGAUAUGGCGAGAGCUAAGCUUGGAAGUCACUUCAGCCAGAAGGACAGAAGGACGCCGUGAGG [pwkr ssNG2 2FMN + F9.17] (Eterna round: R96, puzzle: Same State NG 2)	355	1.34	29.5			
UUCUCAUUUACAUGAGGAUCACCCAUGUUUUUUUGUAGGAAAUAGGAUAUAGGUCUCUCGUUUUACUAGAAGGAUUUCCUUAUU [JR_SSNG3_Sub090] (Eterna round: R96, puzzle: Same State NG 3)	51.5	38	48.5			
GCCGGACAUGAGGAUCACCCAUGUCCUCACUAUACAGGAUAUCGGGUAGGAUCCCUACGGCGAGAAGGGUAUAAAA [Inarquat] (puzzle: Same State 1)				34.2	32.2	22.1
AUUAUACAUGAGGAUCACCCAUGUAAUUAAUUAAUUAAGAUCUAGGAUAUCAGCUCGUUUAGAGCUGAGAAGGAGAUCACAUGU [SSNG3/20-C3] (Eterna round: R96, puzzle: Same State NG 3)		23.3				
GGUCCAGCCUGAGCUGGACAAAAGCAUGUACAUGAGGAUCACCCAUGUUAUGUACAAGCUUUUUGCUCGUCUUAAAA [JL mod - D87 - 10] (puzzle: Sensor for hsa-mir-208a)				172	12.6	231
GGACGUCGAUAAUAUAACUUCACAUGAGGAUCACCCAUGUCACAGGAUAUGGAUCCUAAUUGGAUCCAGAAGGGUGCGACGUCC [Fiskers NG3ss - 36] (Eterna round: R96, puzzle: Same State NG 3)	20.7	61.8	88.8			
GAGUAGUUGAAAGGAUAUUGAUUGUUGUAGGAUCAAGAAGGUUCUAACAUGAGGAUCACCCAUGUAGGACUAUUCCUGUGUAUC [Parity 86 - Jieux - Same State NG 1] (Eterna round: R96, puzzle: Same State NG 1)	8.27	8.09	11.9			
AGCCGAGACUGAGGAUAUAGAAAUCUACAUGAGGAUCACCCAUGUAACAACACGUGGUAGUGAUUCUAGAAGGCGGCUCGGCGC [Omei SS(NG)2 Cv4] (Eterna round: R96, puzzle: Same State NG 2)	113	279	1150			
GAGAGAGGGUGAGGAUAUUCGGUGAUAAUGAUGGGAGAAGGCACAGACAUGAGGAUCACCCAUGUGGGAAUAAUCCAGAGAGAG [Parity 12 - Jieux - Same State NG 1] (Eterna round: R96, puzzle: Same State NG 1)	138	83	181			
UUGAGAAAUUAAGGAUAUUGAGUACAUAUGUUUAACAUGAGGAUCACCCAUGUGGGUUGCGGUAUCGAGAAGGUAAAUUACUAG [Mat - same State NG 2 - JL mod - D72] (Eterna round: R96, puzzle: Same State NG 2)	138	64.7	112			
GUUACAUGAGGAUCACCCAUGUAUGUGUGGGAGUAAGUGUCUUAGGAUAUCUAUCAUUAAAUUUAAGAGAAGGAAGAUUGUUGU [JMF's solution 91] (Eterna round: R96, puzzle: Same State NG 3)	105	84.7	121			
GGUAAGAACUAAGGAUAUUGAAUACAUAUGUUUAACAUGAGGAUCACCCAUGUGGGUUGCGGUGUCGAGAAGGUAGAAUAAUAG [Mat - same State NG 2 - JL mod - D102] (Eterna round: R96, puzzle: Same State NG 2)	204	166	193			
GGAGCCGGCACUGAGGAUAUUCAUUUUAAAACAUGAGGAUCACCCAUGUAGGCCAGAAGGCCUUGGGAGAAGGCAGGUCGGCCCG [Bibimoar - 6] (puzzle: Same State 2)				18.4	190	271
GCACAUGCACAUGAGGAUCACCCAUGUCCCGCGCCCAUUAGGGCGCGGUGGCCGCAAGUUUUUUGCUCGUCUUAUAA [BIOPHYS241_ElaineNg_2] (puzzle: Sensor for hsa-mir-208a version 2)				29.4	21.3	38.8
AUAAAACAUGAGGAUCACCCAUGUCAACAAAGUCGAGGAUAUGGGCAAAUAAAAGAAUAACCAGAAGGCGAAUAAU [salish99_ss1_r3_053] (puzzle: Same State 1)				46	283	481
CUCAAAACAAGUUGCAGUGUUCGUCUUUAACAUGAGGAUCACCCAUGUAAUAACCCGGUGGAAGCGCUCGGGCCACC [Gereerle] (puzzle: Sensor for hsa-mir-208a)				25.7	15.5	26.1
UAGAACAAGCUUUUUGCCCGUCUUAGAUAACAUGAGGAUCACCCAUGUAAGGUGAAAGUUAGAGAGUGGAGGAAGAA [JR_SHM208A_Sub054] (puzzle: Sensor for hsa-mir-208a)				86.4	217	146
GACAAUCUAUCUGAGGAUAUCAUGAGAAGAACAUGAGGAUCACCCAUGUGCAGGAAAACUGCAUAUGAGAAGGCAGAUAGAUUGG [Mat - Same State 2 - Mod - D17] (puzzle: Same State 2)				47.8	607	3570
UGUACCUUCAUAGGAUAUCAUGCGAAAAUUGCGUGAGAAGGGUGAAUACUGUCUUUCUAAGAGUACAUGAGGAUCACCCAUGUA [SameState NG1 #62] (Eterna round: R96, puzzle: Same State NG 1)	181	133	152			
CAGCGCUGUUGAGAGGAUAUGCGGUGAUGGACAUGAGGAUCACCCAUGUUAGCGAUAGCAUUACGGUAGAAGGCUCUACAGCUGC [Soteed Omei mod 3] (puzzle: Same State 2)					14	
UCUUGGUUUUUGCUCGUUUUUUGUGUUGAACAUGAGGAUCACCCAUGUAUUGUACGGUCCAGUUUAAUAAUGGUCCA [JMF 6] (puzzle: Sensor for hsa-mir-208a)				25.9	14.4	26
GAGUUACAUGAGGAUCACCCAUGUUGUUUUGGAUAAGGAUAUAUGGUAGGAAGAGGAAUGAUAGAAGGUAUUAGGG [JR_SS1_Sub063] (puzzle: Same State 1)					25.3	
GUACAUAUCAGAGGAUAUCACGUCGAAUAGACGUGAGAAGGCUGAUCACACAUGAAUAUUAAUACAUGAGGAUCACCCAUGUAC [SSNG1/13-A1] (Eterna round: R96, puzzle: Same State NG 1)	16.9	24.5	31.2			
GUGGGACAUGAGGAUCACCCAUGUGGGAGGGAACGAGGAUAUGUGAGGAGCGAGAAGUGAACAGAAGGCGUGGUUG [JR_SS1_Sub023] (puzzle: Same State 1)					75.3	
CAUCUAUACGUAGGAUAUGUAGGAUAUGCCUACAUGAGGAUCACCCAUGUUCGCAUGGCAGAAGGACAGAAGGACGAACUACUU [pwkr ssNG2 2FMN + 1F5.6] (Eterna round: R96, puzzle: Same State NG 2)	32.4	174	234			
AACAAUCUAUCUGAGGAUAUCAUGAAAUAUACAUGAGGAUCACCCAUGUGCAGGAAAACUGCAUAUGAGAAGGCAGAUAGAUUGA [salish99_ss2_r3_034] (puzzle: Same State 2)				59	612	3190
AAAUAAAACACAGGAUAUGCAACCAAAACGGCGGCAGAAGGGUGAGACAUGAGGAUCACCCAUGUACACGUCCCACGGACGUGC [Arorraed] (Eterna round: R96, puzzle: Same State NG 1)	392	9.43	88.4			
ACAUGAGAUGGAGGAUAUUUUGUACCUACAUGUGACAUGAGGAUCACCCAUGUGGUAAGUAUGAGAAAGAAGGCCAAGAUAUGU [Equivalence 17 - Jieux - Same State NG 2] (Eterna round: R96, puzzle: Same State NG 2)	17.6	18.4	28.5			

Reference: the supplement of paper PMC9170038
